Patent US20240075098A1

Target: DTR

Diphtheria toxin (from UniProt P00588)
death of cochlea outer hair cells in Prestin-P2A-DTR/+ mice after DT at P36: > 90%
